Experiment: label from the status in PepcDB records
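Also: failed if final PepcDB status was selected cloned or expressed and not failed if soluble or beyond.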

Sequence	protein production
MDLGPEQIFGAPCRKCKEKCEGFELHFWKKTCRNCKCGQEEHGILLSTEEDRKVGRIIEDGKDTNQIAKLKADEIPMDKTSETVLNKPEPEKKDDFTKTVSYEWVPSVQNKALTRQYMQMLPKEKQPVSGSEGAQYRKKQLAKQLPAHDQDPNKCHELSRKEAKEMRQFVKKYKNEALGVGDVRLPSEMNVQHYKGHNPATDRNTPTAVDFKDTSMEPKKPQYSCYSCKHAVKEGNPAIFAERAGYDKLWHPACFICTICGEILVDMIYFWKNGKLYCGRHYCDSEKPRCAGCDELIFSNEYTQAENKNWHLIHFCCFHCHNVLAGKIYVMVGSKPVCKSCYMKIHAVVCQGCHNAIDPEEQRVIYQNFSWHASTACFLCSCCSKCLLGKKFIRVEGMIFCSIECKNMMS	failed
KRPGNILIGTLPVGLDFPTRIVAEIVDAPSLTIEEIMRKAKYYLREGADIIDIGMESGKTNVEFLESVLPEIKEKINAPLSLDTLNPKEIEAGEKEVDLILSVDFGTVEEILPSKPVVLIPTNMKEGKFIEDPIGRAKALEKLKEKALNLGYKGLILDPILEHYPNFSRSLVAFYLYRMRNPQDILLAGVGNITEMMDADSVGLNALLASIAGELKISLLLTTEVSPKATGSVRELKRGIDMVLL	failed
MLLSIIMPAHNAAAYLERTLALLAQQIAGLEQVEVVAIDDASTDETAKILVEFARTHSWLKAISVDFANVGLARQAGIGLAGGQYVTFLDSDDAFLSGGLAWMVNVLRQRAPDLLMTPLQETGQPLDGTEVAGLFQDVVPLSTQQACDLFCEHQRLQGHFAGKCVTRQILLQHDLAAMECYEDMMTTPHWIVEAKSIVWGEVPVYAYYKRPGSLSDRGQTWRYGKEYIRALQSIEAAFAGRIAVWQTAHLWIGFAKDLLKTSTGRQFLDTQPAVAEKIQSISVWKYLVATQVSCKWKIRFLRVRLRLLEHHHHHH	not failed
MTIAAAPPSSRFRAVRIWLTLVAALIAVMVLVGGATRLTESGLSIVEWKPVTGSLPPLTDTQWHAAFDGYKQIPQYRELNAGMTLDQFKTIFWWEWSHRLLGRVIGIVYLLPFLWFLWRGAIGPEWKRALWIIFALGALQGAVGWWMVASGLSQRTEVSQVRLATHLSLALIIYAAIVWTLRRMADGARVAAPVRLRVTALALLGLTFVQLYAGALVAGLRAGRLYNTWPEIDGALIPDAARLWFESPWWKNLFDNHLTVQFDHRMLAYALWTLAALHMIDALRTRAAARGAVQLFLALTAQATLGIFTVLYAAPIDLALVHQAMALVVLTLAVLQAERLTATRKDRTARDRGAAGRLAIPSEPFPSA	failed
MAAEIHSRPQSSRPVLLSKIEGHQDAVTAALLIPKEDGVITASQDNGAVMEFHVSEDFNKMNFIKTYPAHQNRVSAIIFSLATEWVISTGHDKCVSWMCTRSGNMLGRHFFTSWASCLQYDFDTQYAFVGDYSGQITLLKLEQNTCSVITTLKGHEGSVACLWWDPIQRLLFSGASDNSIIMWDIGGRKGRTLLLQGHHDKVQSLCYLQLTRQLVSCSSDGGIAVWNMDVSREEAPQWLESDSCQKCEQPFFWNIKQMWDTKTLGLRQHHCRKCGQAVCGKCSSKRSSYPVMGFEFQVRVCDSCYDSIKDEDRTSLATFHEGKHNISHMSMDIARGLMVTCGTDRIVKIWDMTPVVGCSLATGFSPH	failed
MARPSGPATMRTTDGGPMRDIDWLLTDAHALRERGELDPARALYDEALEKARATGETEGLAKALRHVSDMDREAGRLEAALAAAEEAATLYGALGREHRLDLANALRLTALALEALGRPALQPWREAGDLYAELDIAAGLAEAERHLGLVVRPAQSVELEPLARLWWQGWRDAHLPIVPEALARLRTLESFTTRMAAALPQVRVLGPVGAPIGLHLIKDDELNQLYLAAEARGAGFAAVLMADAEAHLADAGVRKAWLACAIGNDRAARFYEKSGWTRARAEIVPTETPAGPFPLEVWRYEKVLTRSEPQTL	failed
MAMMAKHQAVKKIFDQIATKYDLIDTIISLGLDQHWRRVLVSSLGLREGMRCLDCGAGSGKVTELIYFRCGGCDVTALDITDSMFNPELKKYVKFVVSPAESLPFPDASFDRVSSAFLTRNLADIDRYFAEVYRVLRPGGVFVNMDIYNPTRPVISEFFSLYFYRFVPFFGNRATGSKNYTYLANTVKYFHRPSVISQKLADRGFSVEATDLFFGAVYLHRSVKPEGRGLEHHHHHH	failed
MTLPPYHTPLPAETLRALSIPAPWTFGLADRVRFGELDAIGHVNHTAYLRWYESFRLPFLKARHVTDYGPTSPRLVLKQVHCTYLAEMGMGEDYVITGRVSNFRTTSFTMEFACWRLGDAVECTSEGSAVVVLLNRDGSGRYPIPEAGRASFVTEDGVLAAG	not failed
VIVDSVGNVLSDGDTVSITKTIKVKGAQQPLKSGMKARNIRLKPEVGTGPEDHNIECKIDGFGQMILKPAVVKKIV	failed
MVKQGVFMKTDQSKVKKLSDYKSLDYFVIHVDLQIDLSKKPVESKARLTVVPNLNVDSHSNDLVLDGENMTLVSLQMNDNLLKENEYELTKDSLIIKNIPQNTPFTIEMTSLLGENTDLFGLYETEGVALVKAESEGLRRVFYLPDRPDNLATYKTTIIANQEDYPVLLSNGVLIEKKELPLGLHSVTWLDDVPKPSYLFALVAGNLQRSVTYYQTKSGRELPIEFYVPPSATSKCDFAKEVLKEAMAWDERTFNLECALRQHMVAGVDKYASGASEPTGLNLFNTENLFASPETKTDLGILRVLEVVAHEFFHYWSGDRVTIRDWFNLPLKEGLTTFRAAMFREELFGTDLIRLLDGKNLDERAPRQSAYTAVRSLYTAAAYEKSADIFRMMMLFIGKEPFIEAVAKFFKDNDGGAVTLEDFIESISNSSGKDLRSFLSWFTESGIPELIVTDELNPDTKQYFLKIKTVNGRNRPIPILMGLLDSSGAEIVADKLLIVDQEEIEFQFENIQTRPIPSLLRSFSAPVHMKYEYSYQDLLLLMQFDTNLYNRCEAAKQLISALINDFCIGKKIELSPQFFAVYKALLSDNSLNEWMLAELITLPSLEELIENQDKPDFEKLNEGRQLIQNALANELKTDFYNLLFRIQISGDDDKQKLKGFDLKQAGLRRLKSVCFSYLLNVDFEKTKEKLILQFEDALGKNMTETALALSMLCEINCEEADVALEDYYHYWKNDPGAVNNWFSIQALAHSPDVIERVKKLMRHGDFDLSNPNKVYALLGSFIKNPFGFHSVTGEGYQLVADAIFDLDKINPTLAANLTEKFTYWDKYDVNRQAMMISTLKIIYSNATSSDVRTMAKKGLDKVKEDLPLPIHLTFHGGSTMQDRTAQLIADGNKENAYQLH	failed
MTAPIIITGVGKRIGYALAKHLLAQGHKVIGTYRSHYPSIDELQSLGATLIQCDFYDNAQVQNLIEQLSQYPKFRAIIHNASDWLADNSPEFAAHEVMQRMIQVHVNVPYQMNLALASKLQAGAEGEIGASDIIHITDYVAEKGSAKHIAYAASKAALDNLTLSFAAKLAPEVKVNAIAPAMILFNPSDDEAYRQKTLAKAILPKEAGNHEIIELMEYLLNSRYVTGRSHHVDGGRHLR	not failed
KKSKYMTPMQQKLNEVYEAVKNYTDKRGRRLSAIFLRLPSRSELPDYYLTIKKPMDMEKIRSHMMANKYQDIDSMVEDFVMMFNNACTYNEPESLIYKDALVLHKVLLETRRD	not failed
MEIRNVKGTKDYLPEEQVLRSKIKRACEDTFERYGCKPLETPTLNMYELMSYKYGGGDEILKEIYTLQDQGKRDLALRYDLTIPFAKVVAMNPNIRLPFKRYEIGKVFRDGPIKQGRFREFIQCDVDIVGVESVMAEAELMSMAFELFQTLNLEVTIQYNNRKLLNGILQAINIPTELTSDVILSLDKIEKIGIDGVRKDVLERGISEEMADTICNTVLSCLQLSIADFKEAFNNPLVADGVNELQQLQQYLIALGINENTIFNPFLARGLTMYTGTVYEIFLKDGSITSSIGSGGRYDNIIGAFRGDDMSYPTVGISFGLDVIYTALSQKETISST	not failed
MKADILLVSHSKMITDGIKEMIEQMNASEEITIHSLGGTSDGSLGSDPMKIIDTINEADSDREFLIFADLGSAVLSSELAFDMLEEDQQKHYHLVDAPLVEGAFASAITAGVSDDLTQILAEAQNAGKKGWN	not failed
MTRLIQAIFILGFAAFVACTPKSAKSFAKAEVQYKQAEYQHAIENYQQSLSEGGDVAQCNYYIAESYRRSNRIQEAEPFYKKAIEAGIKDEEAHFFYANALKSVGNYEGAATQYKQYIKTGSNFDYINRAKKELENLKALQEVVEKETYYKVENIGQINSPEAEYAPYIYKNQLYFTSSRDAEKMHAATGTGFTNIHEYVFDGVEKFSGQSVPLSNAINTDGAHEASCILTKDGKTMIFARGNSGAKKGPQDVDLFKTTLQSDGKWSEPVMLAINDPAAWDACPALSLDEKTLYFASNREAEGALGNVDIYKATLDEKGEWSNPVNIGAPINTRGNDMYPSFNKDGKFYFASDGHPSLGSLDIFYVDPKESKIVNMGKPINTSYDDFGLVWKDSLEGYFASNRIDNGAKGDDDIYFVRNTFWDRRAKYYVDGTSFAKSKKNPKAILPNSIIYLLSCKGDTLKSIVSDTEGKFEFELKPDTCYYLAAHSDKYFAMPKSEWTPVKIATVPIKDLDIGDNSIKKKAEVMLVKKERIVIVRNILYDYDKWDIRPDAAVELDTMVMLMNANPEIQIELGSHTDERGSAEYNRVLAQKRAQAAVDYIIAHGISKDRIIAKGYGEDEPAIRNAKTEADHQTNRRTTFKVLNHFSDELEIKSGE	failed
MNDSTMKCIKLAAIVCIAIGLSACSEQKTTQEYILASKVYLQKLEYGAAIVELKNAVRQTPKDAEARYYLAKAYSEQGSYVNAEKELDKAEQFGLEMNLLLPDLVFIKSKLNKVEEVYALMENVESLNDEQYIVVLTYAGITALNNKELERAQDFIAQANTISETSLYSKMGAAYLLHAEDNFSKGIEIIDTVLGESPDFTEALLLKGHLLFSSEQFIQANGVYTKYRQLHPFANKVLFFEVNSLISAGEYEQADVKATELIKRFKNSPLAHQYKAQVEYQKKNYEDARSYAISAAQQGNEFIISKLIAGMSSYQLGDIEQAYGYLNQTEKYLPSSHPIKRILASIKIKLGYTTEGIVQLSALEGLTTSDAGLFQSSSIELIKAGDFENAIKLLDKASIIAPENASVAAQKGMLKLSQNDKTGIASLEHALNLDPNLKDVEFSLAIQYLDNGQEKKVRSIAKKWIASQDNQASGYLLLGIIHSNNNLSSKAEENYQKALSIEPENYTALFYLADIAEDADRILDAVDYYQKVVTILPEHKAAIQKLSRLQLKHNNTSNNVEFLSTLAAKHPKNITLALGLAQNLRLNNELKKAITLLESMSDWARSSQQYWAILGDNYLQAKSHTKAKECFKKVLALNPNNFVAHLRLIAISEVKRNYKQALTYTISSLERFEHNTRLLILKANFELLTGDLVSAKKTLRYLQEQKVSHHLINKFVGELALADKDYPSAIDNFHELYQKSPTALNVMLLARALSFNGQKAEAAQTIESYLSRMIKDHKVRLLLAELYMQFDEAKAIKHLEIINQSEQNNAVVLNNLAMLELKRARPEQALLYAEKAFELKSGIHQISDTYGAALVTVKNFDSAIIVLLNAINQGSEAETTYVNLTKAYLATGKTDKVKALLDSIKDRTFYSKVQAMR	failed
MQGNALTILLSGKKYLLLQGPMGPFFNDVAEWLESLGRNAVNVVFNGGDRFYCRHRQYLAYYQTPKEFPGWLRALHRQYDFDTILCFGDCRPLHKEAKRWAKSKGIRFLAFEEGYLRPQFITVEEGGVNAYSSLPRDPDFYRKLPDMPAPHVENLKPSTMKRIGHAMWYYLMGWHYRHEFPRYRHHKSFSPWYEARCWVRAYWRKQLYKVTQRKVLPRLMNELDQRYYLAVLQVYNDSQIRNHSNYNDVRDYINEVMYSFSRKAPKESYLVIKHHPMDRGHRLYRPLIKRLSKEYGLDERVIYVHDLPMPELLRHAKAVVTINSTAGISALIHNKPLKVMGNALYDIKGLTYQGHLHQFWQADFKPDMKLFKKFRGYLLVKTQVNGGYYGGVKFENALGMNKDFLFGSKSIS	failed
